Results: PMC7246905, “Exploring the Enzymatic and Antibacterial Activities of Novel Mycobacteriophage Lysin B Enzymes” (International Journal of Molecular Sciences, 2020)
Read-outs that look alike come from different tables or passages of the source.

Key:
Conditions in all cases: 20 mM Tris-HCl, 100 mM NaCl, 0.1% Triton X-100, pH 8, 37 °C
LysB-Obama12 (LysB-His6) = test: p-nitrophenol release at […] nm, Michaelis-Menten; assay type: biochemical, Mycobacterium phage Obama12
purified protein [1] = substrate: CCCC(=O)Oc1ccc([N+](=O)[O-])cc1; test: purified protein; assay type: biochemical, Mycobacterium phage Saal
purified protein [2] = substrate: CCCCCCCC(=O)Oc1ccc([N+](=O)[O-])cc1; test: purified protein; assay type: biochemical, Mycobacterium phage Saal
purified protein [3] = substrate: CCCCCCCCCCCC(=O)Oc1ccc([N+](=O)[O-])cc1; test: purified protein; assay type: biochemical, Mycobacterium phage Saal
purified protein [4] = substrate: CCCCCCCCCCCCCC(=O)Oc1ccc([N+](=O)[O-])cc1; test: purified protein; assay type: biochemical, Mycobacterium phage Saal
purified protein [5] = substrate: CCCCCCCCCCCCCCCC(=O)Oc1ccc([N+](=O)[O-])cc1; test: purified protein; assay type: biochemical, Mycobacterium phage Saal
purified protein [6] = substrate: CCCC(=O)Oc1ccc([N+](=O)[O-])cc1; test: purified protein; assay type: biochemical, Fromanvirus D29
purified protein [7] = substrate: CCCCCCCC(=O)Oc1ccc([N+](=O)[O-])cc1; test: purified protein; assay type: biochemical, Fromanvirus D29
purified protein [8] = substrate: CCCCCCCCCCCC(=O)Oc1ccc([N+](=O)[O-])cc1; test: purified protein; assay type: biochemical, Fromanvirus D29
purified protein [9] = substrate: CCCCCCCCCCCCCC(=O)Oc1ccc([N+](=O)[O-])cc1; test: purified protein; assay type: biochemical, Fromanvirus D29
purified protein [10] = substrate: CCCCCCCCCCCCCCCC(=O)Oc1ccc([N+](=O)[O-])cc1; test: purified protein; assay type: biochemical, Fromanvirus D29
purified protein [11] = substrate: CCCC(=O)Oc1ccc([N+](=O)[O-])cc1; test: purified protein; assay type: biochemical, Mycobacterium phage Omega
purified protein [12] = substrate: CCCCCCCC(=O)Oc1ccc([N+](=O)[O-])cc1; test: purified protein; assay type: biochemical, Mycobacterium phage Omega
purified protein [13] = substrate: CCCCCCCCCCCC(=O)Oc1ccc([N+](=O)[O-])cc1; test: purified protein; assay type: biochemical, Mycobacterium phage Omega
purified protein [14] = substrate: CCCCCCCCCCCCCC(=O)Oc1ccc([N+](=O)[O-])cc1; test: purified protein; assay type: biochemical, Mycobacterium phage Omega
purified protein [15] = substrate: CCCCCCCCCCCCCCCC(=O)Oc1ccc([N+](=O)[O-])cc1; test: purified protein; assay type: biochemical, Mycobacterium phage Omega

Molecule: CCCCCCCCCCCCCC(=O)Oc1ccc([N+](=O)[O-])cc1 [p-nitrophenyl myristate]
- Km (LysB-Obama12 (LysB-His6); read-out: pNPM (C14)): 1.27 ± 0.0864 mM

Molecule: CCCC(=O)Oc1ccc([N+](=O)[O-])cc1 [p-nitrophenyl butyrate]
- Km (LysB-Obama12 (LysB-His6); read-out: pNPB (C4)): 1.27 ± 0.06 mM

Molecule: CCCCCCCCCCCCCCCC(=O)Oc1ccc([N+](=O)[O-])cc1 [p-nitrophenyl palmitate]
- Km (LysB-Obama12 (LysB-His6); read-out: pNPP (C16)): 0.8 ± 0.0221 mM

Molecule: CCCCCCCCCCCC(=O)Oc1ccc([N+](=O)[O-])cc1 [p-nitrophenyl laurate]
- Km (LysB-Obama12 (LysB-His6); read-out: pNPL (C12)): 3 ± 0.0201 mM

Molecule: CCCCCCCC(=O)Oc1ccc([N+](=O)[O-])cc1 [p-nitrophenyl octanoate]
- Km (LysB-Obama12 (LysB-His6); read-out: pNPO (C8)): 2.67 ± 0.0465 mM

B1: LysB-Saal (LysB-His6) (Mycobacterium phage Saal) (protein)
chain: MRIDGQYVGLGLGDSSDEIRKIKAFMRRKFASYAGDLADTPLYDEAMTAAVAEMQARYSAAGQLRAGLYIPGIVGAETKYVMGYLPRPVVDTRPVLITVCGTGVPWWIGPDADTARAVEDKYLWQPIGYPAAPFPMGKSIAAAITETHNQANRWRERIETHGAALAGYSQGAVVVSELWMNHIAPEDGSLHWMKPHIEKAVTWGNPNRELGHVWADHGGSPRAPSNTQGVSSNGMRDTPPWWRDYAHQGDLYACTEPGDTQEVRNAIWQIVRDLDLFTGPDSLLAQVVELVQAPLPEAIAITKALLDAGMFFAKRTGPHVDYNVQPAIDYLRT
- Km (purified protein [1]): 4.17212 ± 0.020104 mM
- kcat/Km (purified protein [1]): 44700 ± 7630 M⁻¹ s⁻¹
- Km (purified protein [2]): 1519.25 ± 38.596 µM
- kcat/Km (purified protein [2]): 20300 ± 230 M⁻¹ s⁻¹
- Km (purified protein [3]): 1476.39 ± 33.184 µM
- kcat/Km (purified protein [3]): 71800 ± 3350 M⁻¹ s⁻¹
- Km (purified protein [4]): 956.7 ± 12.93 µM
- kcat/Km (purified protein [4]): 54000 ± 3520 M⁻¹ s⁻¹
- Km (purified protein [5]): 2833.32 ± 40.824 µM
- kcat/Km (purified protein [5]): 19700 ± 2420 M⁻¹ s⁻¹

B2: LysB-D29 (LysB-His6) (Fromanvirus D29) (protein)
chain: MSKPWLFTVHGTGQPDPLGPGLPADTARDVLDIYRWQPIGNYPAAAFPMWPSVEKGVAELILQIELKLDADPYADFAMAGYSQGAIVVGQVLKHHILPPTGRLHRFLHRLKKVIFWGNPMRQKGFAHSDEWIHPVAAPDTLGILEDRLENLEQYGFEVRDYAHDGDMYASIKEDDLHEYEVAIGRIVMKASGFIGGRDSVVAQLIELGQRPITEGIALAGAIIDALTFFARSRMGDKWPHLYNRYPAVEFLRQI
- Km (purified protein [6]): 422.6 ± 29.4 µM
- Vmax (purified protein [6]): 122 µmol/min/mg
- kcat (purified protein [6]): 11.9 ± 0.187 s⁻¹
- kcat/Km (purified protein [6]): 28300 ± 6130 M⁻¹ s⁻¹
- Km (purified protein [7]): 42.3 ± 0.445 µM
- Vmax (purified protein [7]): 9.85 µmol/min/mg
- kcat (purified protein [7]): 0.961 ± 0.213 s⁻¹
- kcat/Km (purified protein [7]): 22700 ± 723 M⁻¹ s⁻¹
- Km (purified protein [8]): 19.6 ± 3.094 µM
- Vmax (purified protein [8]): 7.55 µmol/min/mg
- kcat (purified protein [8]): 0.738 ± 0.026 s⁻¹
- kcat/Km (purified protein [8]): 37700 ± 6030 M⁻¹ s⁻¹
- Km (purified protein [9]): 24.08 ± 0.505 µM
- Vmax (purified protein [9]): 3 µmol/min/mg
- kcat (purified protein [9]): 0.294 ± 0.0159 s⁻¹
- kcat/Km (purified protein [9]): 12200 ± 512 M⁻¹ s⁻¹
- Km (purified protein [10]): 37.7 ± 7.134 µM
- Vmax (purified protein [10]): 2.73 µmol/min/mg
- kcat (purified protein [10]): 0.242 ± 0.0168 s⁻¹
- kcat/Km (purified protein [10]): 6330 ± 783 M⁻¹ s⁻¹

B3: LysB-Omega (LysB-His6) (Mycobacterium phage Omega) (protein)
chain: MSLWPEIRAMLNGEFYVPAGTIITANGTGVPDGAGPGFGADLARELERVAEGMWIWKWINYPAAVMPMRPSINTLRLALKEMIRTTPGKIVLSAYSQSAVAFAYVWRDDILNPDGELHDRLDDIVAVILYGNPVRAPGIAYGNELGGQSAPGKLNGHVTGGIAGPDCLRPEECVHPVTGRRIVLDFANAGDLYAAAPVGAEPWVKETEVGHNETLIYEAVMDFNGRDILAFAKEIAQILTMPLSQVVPLVQAIINGLSFLVQGPKAPHWTYTIGPAVDYLVRTGNELRKN
- Km (purified protein [11]): 618.8 ± 24.98 µM
- Vmax (purified protein [11]): 112 µmol/min/mg
- kcat (purified protein [11]): 11.7 ± 0.313 s⁻¹
- kcat/Km (purified protein [11]): 19000 ± 733 M⁻¹ s⁻¹
- Km (purified protein [12]): 193.3 ± 2.258 µM
- Vmax (purified protein [12]): 15.7 µmol/min/mg
- kcat (purified protein [12]): 7.54 ± 0.165 s⁻¹
- kcat/Km (purified protein [12]): 39000 ± 6070 M⁻¹ s⁻¹
- Km (purified protein [13]): 280.8 ± 3.26 µM
- Vmax (purified protein [13]): 79.8 µmol/min/mg
- kcat (purified protein [13]): 8.4 ± 0.339 s⁻¹
- kcat/Km (purified protein [13]): 40200 ± 2260 M⁻¹ s⁻¹
- Km (purified protein [14]): 98.72 ± 5.292 µM
- Vmax (purified protein [14]): 22.3 µmol/min/mg
- kcat (purified protein [14]): 2.35 ± 0.0785 s⁻¹
- kcat/Km (purified protein [14]): 23800 ± 783 M⁻¹ s⁻¹
- Km (purified protein [15]): 24.4 ± 3.116 µM
- Vmax (purified protein [15]): 1.45 µmol/min/mg
- kcat (purified protein [15]): 0.152 ± 0.0184 s⁻¹
- kcat/Km (purified protein [15]): 6230 ± 4950 M⁻¹ s⁻¹
